Common to all, as to assay: SEC; E. coli-expressed and purified human HtrA1- to 4-PD/PDZ constructs, purified as homotrimers by size-exclusion chromatography; conditions not shown (SI Appendix)
Data set [1] deals with human HtrA1-PD/PDZ (N domain-deleted HtrA1, protease domain and PDZ domain) (human).
Data set [2] concerns the target human HtrA2-PD/PDZ (protease domain and PDZ domain) (human).
Data set [3] concerns the molecule itself.

A word on the stoichiometry N: it is a count of units in the complex or per binding partner. Regarding “human HtrA1-PD/PDZ (N domain-deleted HtrA1, protease domain and PDZ domain) (domain or fragment)”, in data set [1], the stoichiometry N was determined as 3.
Regarding “human HtrA2-PD/PDZ (protease domain and PDZ domain) (domain or fragment)”, the stoichiometry N in data set [2] was 3.

B1: human HtrA4-PD/PDZ (protease domain and PDZ domain) (domain or fragment)
chain: TGTRSAGPLRRNYNFIAAVVEKVAPSVVHVQLWGRLLHGSRLVPVYSGSGFIVSEDGLIITNAHVVRNQQWIEVVLQNGARYEAVVKDIDLKLDLAVIKIESNAELPVLMLGRSSDLRAGEFVVALGSPFSLQNTATAGIVSTKQRGGKELGMKDSDMDYVQIDATINYGNSGGPLVNLDGDVIGVNSLRVTDGISFAIPSDRVRQFLAEYHEHQMKGKAFSNKKYLGLQMLSLTVPLSEELKMHYPDFPDVSSGVYVCKVVEGTAAQSSGLRDHDVIVNINGKPITTTTDVVKALDSDSLSMAVLRGKDNLLLTVIPETIN
Turning to B1, in data set [3], the “stoichiometry N” value is 3.

B2: human HtrA3-PD/PDZ (protease domain and PDZ domain) (domain or fragment)
chain: GLHQLSSPRYKFNFIADVVEKIAPAVVHIELFLRHPLFGRNVPLSSGSGFIMSEAGLIITNAHVVSSNSAAPGRQQLKVQLQNGDSYEATIKDIDKKSDIATIKIHPKKKLPVLLLGHSADLRPGEFVVAIGSPFALQNTVTTGIVSTAQREGRELGLRDSDMDYIQTDAIINYGNSGGPLVNLDGEVIGINTLKVTAGISFAIPSDRITRFLTEFQDKQIKDWKKRFIGIRMRTITPSLVDELKASNPDFPEVSSGIYVQEVAPNSPSQRGGIQDGDIIVKVNGRPLVDSSELQEAVLTESPLLLEVRRGNDDLLFSIAPEVVM
With B2, in data set [3], the “stoichiometry N” value stood at 3.

The values are drawn from PMC7211935, “Development of a therapeutic anti-HtrA1 antibody and the identification of DKK3 as a pharmacodynamic biomarker in geographic atrophy” (Proceedings of the National Academy of Sciences of the …, 2020).
